B1: mir-93: microRNA (SEQ ID NO:1) over-expressed from a doxycycline-inducible pTRIPZ lentiviral vector tagged with RFP (nucleic acid, listed as Homo sapiens)
chain: CTGGGGGCTCCAAAGTGCTGTTCGTGCAGGTAGTGTGATTACCCAACCTACTGCTGAGCTAGCACTTCCCGAGCCCCCGG
B2: mir-221: microRNA (SEQ ID NO:3), forced over-expression in mammary cells (nucleic acid, listed as Homo sapiens)
chain: TGAACATCCAGGTCTGGGGCATGAACCTGGCATACAATGTAGATTTCTGTGTTCGTTAGGCAACAGCTACATTGTCTGCTGGGTTTCAGGCTACCTGGAAACATGTTCTC
B3: mir-100: microRNA (SEQ ID NO:2) over-expressed from a doxycycline-inducible pTRIPZ lentiviral vector tagged with RFP (nucleic acid, listed as Homo sapiens)
chain: CCTGTTGCCACAAACCCGTAGATCCGAACTTGTGGTATTAGTCCGCACAAGCTTGTATCTATAGGTATGTGTCTGTTAGG

Legend:
Format in all cases: cell-based, human
MCF-10A cells = test: flow cytometry for EpCAM/CD49f, ALDH (Aldefluor) and CD24/CD44 after inducible lentiviral microRNA over-expression; settings: for ALDH-positive CSC population / CD24−CD44+ population: expression of the microRNA in MCF10A cells and several cancer cell lines
Source text: Cells were transduced with pTRIPZ-microRNA-RFP lentiviruses with inducible systems and selected with puromycin, and microRNAs were induced with or without (CONTROL) Doxycycline and analyzed for RFP, EpCAM and CD49f.
(§1) Furthermore, forced over-expression of mir-100 or mir-221 increased the proportion of EpCAM^−CD49f^+ cells in non-transformed MCF-10A cells as well as primary normal human mammary cells isolated from reduction mammoplasty specimens. […] This was followed by an EMT/MET transition in the Aldefluor-positive CSC population. Since TGFβ is a major regulator of EMT, abrogation of this signaling pathway may facilitate MET.
Of interest, it has been recently reported that the mir106b-25 cluster including mir-93 is induced in the early stages of nuclear reprogramming of fibroblasts into IPS cells. This is accompanied by an EMT to MET conversion in these cells which is obligatory for reprogramming to occur.
(§2) A TET on/off inducible system was established to over-express microRNAs in a lentiviral vector tagged with RFP. Utilizing this system, it was shown that forced over-expression of mir-93 increases the proportion of EpCAM^+CD49f^+ and ALDH^+ cells (FIG. 5). […] Furthermore, forced over-expression of mir-100 increased the proportion of EpCAM^−CD49f^+ cells (FIG. 5).

SUM159 cells [1] = test: induction of MET and EMT/MET marker expression in the ALDH-positive CSC population after mir-93 induction; settings: induction of the microRNA in EMT SUM159 cells
Source text: as §1, §2

SUM159 cells [2] = test: in vitro matrigel invasion assay; settings: microRNA induced with Doxycycline vs control; serum as attractant
Protocol: The invasive capability of pTRIPZ-mir-93-RFP cells or pTRIPZ-mir-100-RFP cells with or without (CONTROL) Doxycycline was assessed by matrigel invasion assay. […] were plated in Matrigel and serum was utilized as the attractant.
as §2
Assays were done in triplicate in invasion chambers pre-coated with reduced growth factor matrix from BD Biosciences. Cells were added to the upper chamber in […] of serum-free medium. For the invasion assay, 20,000 cancer cells were seeded on the coated chamber, and the lower chamber was filled with […] of medium (Cambrex) with FBS. After 37 hours of incubation, the cells on the underside of the upper chambers were stained with the blue stain in the Cell Invasion Assay Kit (Chemicon; cat. #ECM550) and counted using light microscopy.

TGFβR2 = test: TGFβ signaling after mir-93 induction; settings: by targeting TGFβR2; effect seen within twelve hours of induction
Source text: as §1

[3] = forced over-expression of the microRNA, MCF-10A and primary normal human mammary cells
[4] = forced over-expression of the microRNA

Molecule | proportion of EpCAM+CD49f+ and ALDH+ cells (MCF-10A cells; forced over-expression of the microRNA (TET inducible lentiviral vector), MCF-10A and primary normal human mammary cells) | MET in the ALDH-positive CSC population (SUM159 cells [1]) | expression of E-Cadherin and Claudin (SUM159 cells [1]; ALDH-positive CSC population) | expression of mesenchymal genes (vimentin, N-Cadherin, Twist) (SUM159 cells [1]; ALDH-positive CSC population) | cell invasion (SUM159 cells [2]) | TGFβ signaling (TGFβR2) | ALDH-positive CSC population (MCF-10A cells) | CD24−CD44+ population (MCF-10A cells) | proportion of EpCAM−CD49f+ cells (MCF-10A cells; [3]) | ALDH+ CSC population (MCF-10A cells; [4]) | proportion of CD24−CD44+ CSC cells (MCF-10A cells; [4])
B1 | increases | induces an MET | increased expression | down-regulation | decreased cell invasion | inhibits TGFβ signaling |  |  |  |  | 
B2 |  |  |  |  |  |  | decrease | increase | increased |  | 
B3 |  |  |  |  | increased cell invasion |  | decrease | increase | increased | decrease | increase
